As usually defined, the Kd is the concentration at which binding is half-saturated.

The source of these data is doi:10.1101/2025.06.16.659985, “Dynamic assembly of malate dehydrogenase-citrate synthase multienzyme complex in the mitochondria” (bioRxiv, 2025).

For experiment [1], the target named is T1, recombinant yeast CIT1 (yeast (Saccharomyces cerevisiae), UniProt P00890 38-479).
T1 construct: citrate synthase CIT1, mitochondrial, yeast (Saccharomyces cerevisiae); also called recombinant CIT1; source: recombinant; produced according to the Supplementary Methods
T1 sequence (looked up): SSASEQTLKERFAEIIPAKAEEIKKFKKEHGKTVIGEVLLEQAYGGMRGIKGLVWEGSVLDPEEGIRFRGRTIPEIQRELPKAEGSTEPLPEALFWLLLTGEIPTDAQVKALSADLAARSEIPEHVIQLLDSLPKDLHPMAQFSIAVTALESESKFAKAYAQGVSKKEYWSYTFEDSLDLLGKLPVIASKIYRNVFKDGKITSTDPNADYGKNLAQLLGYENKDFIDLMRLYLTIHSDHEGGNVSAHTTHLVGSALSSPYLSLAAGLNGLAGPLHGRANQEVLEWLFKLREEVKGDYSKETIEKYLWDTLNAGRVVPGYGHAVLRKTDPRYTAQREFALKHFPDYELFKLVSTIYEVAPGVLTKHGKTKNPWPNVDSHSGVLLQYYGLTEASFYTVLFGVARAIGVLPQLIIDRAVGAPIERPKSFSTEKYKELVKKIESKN
Briefly: MST; labeled MDH1 as target, CIT1 titrated (two-fold dilutions of 80 μM, 16 concentrations), Monolith NT.115, room temperature; buffer pH 6.0. As to conditions: both partners purified.

The target in experiment [2] is T1, recombinant yeast CIT1. As to the kind of experiment: MST; labeled MDH1 as target, CIT1 titrated (two-fold dilutions of 80 μM, 16 concentrations), Monolith NT.115, room temperature; buffer pH 6.4. As to conditions: both partners purified.
The target in experiment [3] is T1, recombinant yeast CIT1. Briefly: MST; labeled MDH1 as target, CIT1 titrated (two-fold dilutions of 80 μM, 16 concentrations), Monolith NT.115, room temperature; buffer pH 7.2. To be noted: both partners purified.
For experiment [4], the target named is T2, recombinant yeast MDH1, fluorescently labeled (yeast (Saccharomyces cerevisiae), UniProt P17505 18-334, labeled with Protein Labeling Kit RED-NHS 2nd Generation (NanoTemper)).
T2 chain: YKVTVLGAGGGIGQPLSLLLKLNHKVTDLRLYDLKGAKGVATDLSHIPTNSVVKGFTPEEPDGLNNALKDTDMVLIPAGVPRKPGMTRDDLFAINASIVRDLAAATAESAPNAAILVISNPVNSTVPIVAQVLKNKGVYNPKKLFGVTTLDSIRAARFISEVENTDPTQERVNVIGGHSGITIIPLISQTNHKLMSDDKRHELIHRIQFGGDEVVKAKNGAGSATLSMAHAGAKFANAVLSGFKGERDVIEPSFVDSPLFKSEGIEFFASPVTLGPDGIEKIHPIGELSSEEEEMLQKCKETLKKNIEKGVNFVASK
Briefly: MST; pH 6.8.

Experiment [5] has as its target T2, recombinant yeast MDH1, fluorescently …. Briefly: MST; 10 mM malate.
For experiment [6] the target is unchanged. As to the kind of experiment: MST; 10 mM fumarate.
Experiment [7] shares this target. As to the kind of experiment: MST; control (no metabolite).

B1: recombinant yeast MDH1, fluorescently labeled (enzyme, yeast (Saccharomyces cerevisiae), UniProt P17505 18-334, looked up)
chain: T2 chain
modifications: labeled with Protein Labeling Kit RED-NHS 2nd Generation (NanoTemper)
notes: malate dehydrogenase MDH1, mitochondrial, yeast (Saccharomyces cerevisiae); also called recombinant MDH1; labeled MDH1; source: recombinant; produced according to the Supplementary Methods
In the case of B1, the Kd with recombinant yeast CIT1 [1] amounted to 33 nM; with recombinant yeast CIT1 [2], 223 nM; with recombinant yeast CIT1 [3], 3480 nM.

B2: recombinant yeast CIT1 (enzyme)
chain: T1 sequence (looked up)
On to B2, for which the dissociation constant (Kd) in experiment [4] turned out to be 2720 nM; in experiment [5], 367 nM; in experiment [6], 288 nM; in experiment [7], 6070 nM.
